Reference: article PMC9519043

What was measured:
[1] = tested on: HCoV 229E virus particle (Human coronavirus 229E (ATCC VR-740)); assay: microfluidic affinity capture, RT-qPCR; conditions: 5' amino C12 linker and TEG spacer 9, 3' inverted dT, SPR (BIAcore T200, […], pH not stated
[2] = tested on: HCoV OC43 virus particle (Betacoronavirus 1 HCoV OC43 (ATCC VR-1558)); assay: microfluidic affinity capture, RT-qPCR; conditions: 5' amino C12 linker and TEG spacer 9, 3' inverted dT, SPR (BIAcore T200, […], pH not stated

Sequence: CAGCACCGACCTTGTGCTTTGGGAGTGCTGGTCCAAGGGCGTTAATGGACA [51-nt SARS-CoV-2 aptamer, chip form]
- binding signal [1]: 0.7 % recovery
- binding signal [2]: 3.5 % recovery
